From the DeepSol protein solubility set

Assay: soluble on expression in E. coli; label from the status in PepcDB or PDB records

Soluble on expression in E. coli, not soluble:
MGSDKIHHHHHHMQTLPTPTTSSNTANQSTFDTTIKRRKTRPVKVGNVTIGGGYPVVVQSMINEDTLDIDGSVAAIRRLHEIGCEIVRVTVPSIAHAVALAEIKQKLITTYQDVPIVADVHHNGMKIALEVAKHIEKVRINPGLYVFEKPNTNRTEYTQAEFEEIGEKIRETLAPLVITLRDQGKAMRIGVNHGSLAERMLFTYGDTPEGMVESALEFIRICESLDFRNIVISMKASRVPVMVAAYRLMAKRMDDLGMDYPLHLGVTEAGDGEYGRIKSTAGIATLLADGIGDTIRVSLTEAPEKEIPVCYSILQALGLRKTMVEYVACPSCGRTLFNLEEVLHKVRESTKHLTGLDIAVMGCIVNGPGEMADADYGYVGKTPGYISLYRGREEIKKVPEDKGVEELINLIKADGRWVDP, MGSDKIHHHHHHMRAPQAQSKLSEVLEFLQQYEGTINPNKLIFGRWIKDAQALRLVDPSEGYMMEAWVYRAQGKLDKALEYMKNAYRLDSSSSSVNVNYASLLLSSGDFNESEKLCIKRIRLDRTNTDIFKILITNTLHTFNQDALFEAIELFIPTNPEAEKVIGQAKKRIFDFDHMQSTLESANLSIEVYKRFSSITQKVRNTRYIGESRTVINCEVNELGTFLLIDEALVNASIEDCLSMYDDLVEEIINDDHYFEEYKKIIFNFIPTTSTAINSAYQLEI, MGSDKIHHHHHHMRIAAYENFITKLLMNNKCMDINEIDKYILRTTSNNYNLVKKQLDRTNKLLEERYERYGCLTEEDNVEALKKGYYDLGKIGLTLEEIRKKIAKFQIDKESPMGIQIEKDWNFATFLLQDLLQLENMNLITYSRLLEERLSELSKNKTNKKTYNKPNNKETTIKTNSPTTNSSDIMTIDEICALLHLSKSKIYHMACAHEIPHHKLNPSKKGRLYFFRSEIEEWLRNKRIRTVDEFLLQFEN, MGSDKIHHHHHHMRIQVASDLHHELAVSNSAMAARLEHADDAVDVLVLAGDIHNQTGAIDLYADYPVPVVYVCGNHEFYGTEMLQLLPELRRRAVGTSVKLLEKDELILNNVRFLGCTMWTDYHAFPLCLNTAMEYARNHMLDHQRIRESNNGRFEPEDAAEEQRAALEFLVRKIREPFPGKTVVITHHAPSARSIHQHEQNNPLVPAFASNLEFLASEADLWIHGHIHLSSDYRLGNCRVICNPRGYPGRRNRSNPALAYENAQFDARKVIDV, MGSDKIHHHHHHMRKDEIMHIVSCADDNYARHLGGMFVSLLTNMDQEREVKLYVIDGGIKPDNKKRLEETTLKFGVPIEFLEVDTNMYEHAVESSHITKAAYYRISIPDLIKDESIKRMIYIDCDALVLEDISKLWDLDIAPYTVAAVEDAGQHERLKEMNVTDTGKYFNSGIMIIDFESWRKQNITEKVINFINEHPDEDFLVLHDQDALNAILYDQWYELHPRWNAQTYIMLKLKTPSTLLGRKQYNETRENPAIVHFCGGEKPWNSNTKHPYRDEYFHYMSYTKWNTIGNPAINQ, MGSDKIHHHHHHMRKLKREAYKLNNIKMLQQDVKYSEEVIEAEFSVEGYSLIDYKRSYTLSRALVNGKWIVYDGNRLESSQKIKEFEICEDFYHESVKAWPNKEKYSRLFTNIKLNEDDQLKVISKKISKSILIHDVKECREEKVVNYVEYNDLNFSYAGNPKDIPSIVEYLRASQSQLTSPSRQVLTESGRLTFILDSEIVASIFHYVLRNFLNGNSPKLKLNEKISSEITIYDNPLNSFSSSFSVFDDEGVKTKKKEIIGDGIITNYLGTLTSKYGEAGNARGILPKPDYFSLEVKQGDWSLNELIDESRGAYIAMGVKKSELIRNSIRITPRSVVKIGQGQIFFREIAIPLQELVTIDAVTRENRGVFIDEEHGGVTPYVRMKVRAILY, MGSDKIHHHHHHMRKMRKASRLFEIIQILRLARQPVTAAMIAERLEVTIRSIYRDIAALQAMRVPIEGGRGIGYILRPGFDLPPLMFSIEEMEAIVLSLALLERTGDDELKQAAKRVSSKIAGAVPPPLRQTFDANALHAWGFAAPSAGTIDLALVRRAIRDEEKLDLSYRDEAGRTTQRIIRPIALIYYAEAVNTVAWCELRQAIRNFRSDRIEGCQPTGLHFKGEGDRLRQIWVEGWETPAVGG, MGSDKIHHHHHHMRKYSQRHIPVMVREVIEFLKPEDEKIILDCTVGEGGHSRAILEHCPGCRIIGIDVDSEVLRIAEEKLKEFSDRVSLFKVSYREADFLLKTLGIEKVDGILMDLGVSTYQLKGENRGFTFEREEPLDMRMDLESEVTAQKVLNELPEEELARIIFEYGEEKRFARRIARKIVENRPLNTTLDLVKAVREALPSYEIRRRKRHFATKTFQAIRIYVNRELENLKEFLKKAEDLLNPGGRIVVISFHSLEDRIVKETFRNSKKLRILTEKPVRPSEEEIRENPRARSGRLRAAERIEEGGD, MGSDKIHHHHHHMRLEELVNNNYNKLNENDLHIWKYICCNKRECCTISIDELAKKCNISRTTISRFTQKLSLEGFGEFKVRLKLELGVSNNFKSSSVEDVYQDYYKTIKDMKEKDFLEICRMIYGAKHLFVYGTGAVQIAAANELKRHFISVNKFFVTVHGEAEMNMVLETATDEDLIVIISLSGEKKSAVEYLKKVKVKNIPSISITKLSDNSIARLCDENLYIITRNIKIEGVVTCENVGQYFILIEILFLKYITYLGQLKKEDTIS, MGSDKIHHHHHHMRLILSQCLANLSVRFLMNRNSYNKIAHLWNVARNGFFGREREYLDAILSVAPIGSTILDLGCGTGRPMAEYIVSRGRCVLGVDQSEEMLRLARQKLPHEQWVLSSIESYEPVEGYHGALLWDSLFHIRRTEHELIVSKVVRGLPSGGRLMLTVGGSAHPEFTDFMYGEEFYYDSNTPQETETFLQRLSCRMVIGEYMNLPDGGRDKGRYAIVAEKI, MGSDKIHHHHHHMRLLFRKAGEFFRDFVSIFKHISDDLEMYLKLDPAAESKLQVFFFYASFQGLMWYRFAHFFYKWKLKVLAYLIYYFVRVVFSMDIHPAARIAPGVVIDHGIGVVIGSTASVGRGTLIYHGVTLGTRKPCSGKRHPDVGENVMIGTGAKILGPIRVGNNAVVGANAVVLEDVPDGAVVVGVPARIVKWRRDFCDDGKTDREHSYSETRFDRLENLLETGKE, MGSDKIHHHHHHMRLTCAIIDDEPLAVSLLESYVLKTPFLDLQGTYNSALDALSDLRDRPVDLLFLDIQMPELSGLEFSRILNADTRVIFTTAFDQYAVDSYRVNALDYLLKPISYPDFLASANKALRWYELLRKPVSSEEKEGSAPIAEKGGMESIFVKSEYKLLQIELRKILYIEGLKDYVKIFVEDEPRPVLSLMSMKSLEDMLPSDRFVRVHRSFIVQPEKIKVIERNRIVFGKEYIPISDNYKQHFLEMIERRSILPK, MGSDKIHHHHHHMRLVNIAYVGEGEVLARPLVSPNGKVLLQAGVKLTRNYIDKLSRLGFDTMFIEDDTFQDVEIYSAVSIKTREAAYASLENLSKNLNEAQPHTVNLGEVKKAVQNIIADLLYSKDMLGNVMEIQGYDDYTFHHSVNTTIIALIMGISMGWHNGKLLELGMGVLMHDVGKIKIPSEILNKRGPLTPEEFAEIKKHAEYGFEILRKNHDINLLSAHIALQHQERWDGSGYPRGLKGNQIHEYGRLAAVADVYEALTSKRVYRNALQPYEAYEYVIANSDTLFEPKVVQNTFSKCITPYPTGTGVRLTNGLRGNVVKQNFTFPTRPYVRMTHEGEIRLIAPIDYNLAEHPSLMIVGIENK, MGSDKIHHHHHHMRMERVVERVAVTGAEAVANAMRQIEPDVVAAYPITPQTPIVEYFARFVADGVVRTEMIPVESEHSAMSAVVGAAAAGARAMTATSANGLALMHEIVYIAASYRLPIVMPVVNRALSGPINIHCDHSDAMAERDSGWIQLFAETNQEAYDFTILAVRLAEHEDVRLPVMVNLDGFILSHGVEPVEFYPDELVKKFVGELKPMYPLLDTEHPVTWGPLDLYDYYFEHKRQQIEAMENVKKVFPEIAKEFEETFGRKYWFVEPYRMEDAEHVMVALGSTNSTIKYVVDELREEGYKVGSLKIWMFRPFPKEQLQELLNGRKSVVVLDRAVSFGAEAPLYEAVKSALYEVAARPMLGSYVYGLGGRDIKPEHIRKAFEDAINGNLIADEQRYLGLRE, MGSDKIHHHHHHMRSFTQSSKPIFKDHIVQQSSLVANNYRFIGPRLIDNTPVLFGSFSVVQLNPHLILHTADVINRHNMKTQNLLDSAIKLAIVVSGNAHISFGHQELHLGESQPASLIALTEPTMFTRIGKRDEYERTITLTFDREWLYGNMMDTVGDWQAIHDFTQTHLATHLWTPSRQARAIALQTLDANPCQTPLQRLYLETQCMSLIIEAFTSLTASVAQEKSSGVTLRGYHRIQQIRDMLESGSADHLSMSEIAKSVNMSESTLQRHFRQTFNMSVFEYLRNCRLQRAMLALQKDGIGIAQAASIAGYNSPANFATALRRAFGITPGQLKDRF, MGSDKIHHHHHHMRTFRLVIACPDRVGIVAKVSNFLASHNGWITEASHHSDNLSGWFFMRHEIRADTLPFDLDGFREAFTPIAEEFSMDWRITDSAQKKRVVLMASRESHCLADLLHRWHSDELDCDIACVISNHQDLRSMVEWHDIPYYHVPVDPKDKEPAFAEVSRLVGHHQADVVVLARYMQILPPQLCREYAHQVINIHHSFLPSFVGAKPYHQASLRGVKLIGATCHYVTEELDAGPIIEQDVVRVSHRDSIENMVRFGRDVEKMVLARGLRAHLEDRVLVHDNKTVVFD, MGSDKIHHHHHHMRTMVAVRLRNLVESDRERLLIWRNSPDVSAYMYSDHKIGHEEHDHWFDVARHDPRRRYWIIEADGEPVGLANLADIDLVHRRCAWAYYLASPKVRGLGVGSFVEFQIIEYVFNQLHLNKLWCEVLISNESVWRLHELYGFQREALFRQHVMKQGHEVDVIGLGLLASDWAARRDAMAERLCAKGYTIPDLTCRAA, MGSDKIHHHHHHMRVAIIGMGTAGVSVLRELVKHPKFNQLDIDLYDDKVNMGQGVPFQNDSSELLINMPSKKMSLNLDDETEFWKWYKQQTDFNFDEPAYLPRFVFGHYMKSYLSMFTKKYPNISTNYNKVQEIYTNSNIDETNLTYYICTTNSEQSWQAYDYVFLTCGTFAYHDPYNLKGKKGYIATPYPTYNTLDEVNELDDIAIIGTGLASLDVVRYVAAHHPKLPITMTSRSAHLPSVRGTMIDVTFKYLTKDKLNDIKKHHFGNAPLDTLVSLFLKECAEYDIDFKKLVYRRTGNHIADLKYDLARPTEMGIFQSMIEHLKENLNWIWNSLSIEDQHQFNQKYSKMIQLNSNPMPPRTAELIIELIENKSLILKKDLEDVKHDGKLYYFSYKNQESVDIYNVVINATGAKSHLNELDQDDQLIKNLENRQIVQAHPMGGIQIIPETNQVISPRFGTLTNMIAIGQMTNGVNKLRNGVKMIVEQVAHKVSQLYDALESNEQQQRSDNQ, MGSDKIHHHHHHMRYSPEALIAFVETVSCGSFSAAARRLRKSQSTISIAIAHLEADLGFSLFDRSSRQPVLTEEGKRVLSYVQAILSASDRLDEVALTLSGETEARLTFVLSDTLHPDSLEELMAQFDRQFPHTEFECLIGENDDVIDLLQKGRAQIGLIEARDDYPTDIGAARLPVQSWMGVYVATTHPLASQTNLQWEQLHTWRELRLNTYLDSNANITRGPAWSAPNYLLLLSMAVQGFGWCVLPCALVEEFAAEKPLAQLDVPGWPRAIAIDLLWNKKTPPGTAGNWLRYHLQQK, MGSDKIHHHHHHMSAFNAVQVGRRVLAVEADALRVLADSLGEAFANAVETIFNAKGRVVCTGMGKSGHVARKIAATLASTGTQAMFVHPAEASHGDLGMIGPDDVVLALSKSGAGRELADTLAYAKRFSIPLIAMTAVADSPLGQAGDILLLLPDAPEGTAEVNAPTTSTTLQIALGDAIAVALLERRGFTASDFRVFHPGGKLGAMLRTVGDLMHGADELPLVAADAAMPDALLVMSEKRFGAVGVVDNAGHLAGLITDGDLRRHMDGLLTHTAGEVMTHAPLTIGPGALAAEALKVMNERRITVLFVVERERPVGILHVHDLLRAGVI
